Like-named read-outs stand apart in the source and are kept apart here.
T1: human TIGIT on CHOK1-huTIGIT-2A3 cells (human, UniProt Q495A1 22-244)
T1 construct: whole, on cells; also called cells expressing the human TIGIT
T1 sequence (looked up): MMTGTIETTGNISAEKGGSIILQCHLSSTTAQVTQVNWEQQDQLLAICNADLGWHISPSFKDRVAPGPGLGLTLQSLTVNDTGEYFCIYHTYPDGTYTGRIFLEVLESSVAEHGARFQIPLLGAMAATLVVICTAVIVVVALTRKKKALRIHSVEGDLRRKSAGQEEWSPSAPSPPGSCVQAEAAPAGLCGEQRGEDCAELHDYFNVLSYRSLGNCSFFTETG

T2: Human TIGIT (SPR analyte, Example 7) (human, UniProt Q495A1 22-141, limits assumed)
T2 sequence (looked up): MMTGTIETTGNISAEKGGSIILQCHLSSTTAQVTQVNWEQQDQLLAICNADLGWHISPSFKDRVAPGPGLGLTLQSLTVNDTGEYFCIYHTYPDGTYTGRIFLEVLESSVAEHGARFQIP

T3: histidine-tagged (His-Tag) human TIGIT protein (huTIGIT, ACRO Biosystems, #TIT-H52H3) (human, UniProt Q495A1 22-141)
T3 construct: Bought reagent; not shown: His tag
T3 sequence (looked up): T2 sequence (looked up)

T4: human TIGIT (hybridoma screening, Table 1) (human, UniProt Q495A1 22-141, limits assumed)
T4 sequence (looked up): T2 sequence (looked up)

B1: HB0030 (antibody, human IgG1, kappa, V domains shown)
VH: QVQLQESGPGLVKPSETLSLTCTVSGYSITSDYAWIWIRQPPGKGLEWIGYITSSGSTYYNPSLKSRVTFSVDTSKNQFSLKLSSVTAADTATYYCARLDFGNYGGAMDYWGQGTLVTVSS
VL: DIQMTQSPSSLSASVGDRVTITCRASQHVSTAVNWYQQKPGKAPKLLIYSASYLYSGVPSRFSGSRSGTDFTLTISSLQPEDFATYYCQQHYITPYTFGQGTKLEIKR
notes: Humanized anti-TIGIT IgG1; also called 900461; TIGIT parental monoclonal antibody
B2: B3/29F6 (antibody, V domains shown)
VH: DVQLQESGPGLVKPSQSLSLTCTVTGYSITSDYAWIWIRQFPGNKVEWMGYITSSGSTSYNPSLKSRISFTRDTSKNQFFLQLTSVTTEDTATYYCARLDFGNYGGAMDYWGQGTSVTVSS
VL: DIVMTQSHKFMSTSIGDRVSITCKASQHVSTAVAWYQQKPGQSPKLLIYSASYRYTGVPDRFTGSRSGTDFTFTISSVQAEDLAVYYCQQHYITPYTFGGGTKLEIK
notes: Mouse hybridoma antibody

Key:
[1] = molecular target: T1, human TIGIT on CHOK1-huTIGIT-2A3 cells; test: flow cytometry competition with huCD155-moFc on CHOK1-huTIGIT-2A3 cells
Experimental: After reaction, the 96-well U-shaped plate was resuspended with 1% BSA/PBS, centrifuged (300 g×3 min) to discard the supernatant, and washed once in such way; and Alexa488-goat anti-mouse-Fc (Jackson ImmunoResearch, #115-545-071) diluted at 1:300 was added to react for 15 min in the dark at room temperature. After reaction, the 96-well U-shaped plate was resuspended with 1% BSA/PBS, centrifuged (300 g×3 min) to discard the supernatant, washed three times in such a way, and finally resuspended with 100 μL of 1% BSA/PBS for each wall; and the fluorescence intensity of an FITC channel was detected with a flow cytometer (BD, #CantoII).

[2] = molecular target: T1, human TIGIT on CHOK1-huTIGIT-2A3 cells; test: flow cytometry on CHOK1-huTIGIT-2A3 cells
Experimental: All chimeric antibodies and humanized antibodies were diluted to 20 μg/ml with 1% BSA in PBS solution (1% BSA/PBS), were added to a 96-well U-shaped plate at 20 μL per well; and a negative control (with 1% BSA/PBS added only) was set up at the same time. The suspension of cells (CHOK1-huTIGIT-2A3, Huabo Biopharm) expressing human TIGIT during the logarithmic growth phase were centrifuged (1000 rpm×5 min) to discard the culture medium; and the cells were resuspended with 1% BSA/PBS until the density of viable cells was 1×10⁶/mL, and were added, at 20 μL (2×10⁴ cells) per well, to the 96-well U-shaped plate with the anti-TIGIT antibody to react for 30 min at room temperature. After reaction, the 96-well U-shaped plate was resuspended with 1% BSA/PBS, centrifuged (300 g×3 min) to discard the supernatant, and washed once in such a way; and PE-goat anti-human-Fc (Jackson ImmunoResearch, #109-115-098) diluted at 1:200 was added to react for 15 min in the dark at room temperature. After reaction, the 96-well U-shaped plate was resuspended with 1% BSA/PBS, centrifuged (300 g×3 min) to discard the supernatant, washed three times in such a way, and finally resuspended with 100 μL of 1% BSA/PBS for each wall; and the fluorescence intensity of a PE channel was detected with a flow cytometer (BD, #CantoII).

[3] = molecular target: T2, Human TIGIT (SPR analyte, Example 7); test: SPR (Biacore 8K), antibody captured by anti-human chip, antigen analyte, 1:1 model
Experimental: (§1) The Anti-Human Capture-CMS chip (GE, #BR-1005-30) was prepared according to the method for conjugating the Human Antibody Capture Kit (GE, #BR-1008-39) to the Amino Conjugation Kit (GE, BR-1000-50).

[4] = molecular target: T2, Human TIGIT (SPR analyte, Example 7); test: as above; remark: listed apart in the source
Experimental: as §1

[5] = molecular target: T3, histidine-tagged (His-Tag) human TIGIT …; test: SPR (Biacore 8K), antibody captured on Protein A chip, huTIGIT-His analyte, 1:1 model
Experimental: This test determined the antigen-antibody binding kinetics and affinity by using an SPR method. BIOCORE (GE, #Biacore 8K) was used. […] An antibody sample was diluted using an equilibration buffer to an experimental working concentration, and sealed at 2-8° C. for later use. The antigen, namely, the histidine-tagged (His-Tag) human TIGIT protein (huTIGIT, ACRO Biosystems, #TIT-H52H3), was diluted with an equilibration buffer HBS-EP (10×) (GE, #BR-1006-69). Starting at 20 nM, the antigen was diluted by 2.5-fold for 5 concentration gradients, and 2 replications were set up for zero concentration (i.e., the equilibration buffer) and the lowest concentration. The chip was regenerated with pH1.5 glycine solution (GE, #BR100354).

[6] = molecular target: TIGIT on Jurkat-TIGIT-22G8 cells; test: cell-based or functional assay
[7] = molecular target: T4, human TIGIT (hybridoma screening, Table …); test: Biacore (SPR), hybridoma screening

Binder | IC50 [1] [µg/mL] | EC50 [2] [µg/mL] | Kd [3] [nM] | koff [3] [s⁻¹] | kon [3] [M⁻¹ s⁻¹] | Kd [4] [nM] | koff [4] [s⁻¹] | kon [4] [M⁻¹ s⁻¹] | Kd [5] [nM] | koff [5] [s⁻¹] | kon [5] [M⁻¹ s⁻¹] | EC50 (nM), IL2 secretion of Jurkat-TIGIT-22G8 cells with PHA and CD155 [6] [nM] | Kd [7] [nM]
B1 | 0.0573 | 0.0466 | 0.0345 | 0.000167 | 4.82e+06 | 0.0346 | 0.000175 | 5.07e+06 | 0.0583 | 0.000185 | 3.17e+06 | 5.82 | –
B2 | – | – | – | – | – | – | – | – | – | – | – | – | 0.0139

— patent US20240010730A1 (SHANGHAI HUAOTA BIOPHARMACEUTICAL, published 2024)
